{
  "source": "patent US20250313634A1",
  "about": "(WUXI BIOLOGICS SHANGHAI, published 2025)",
  "assay_in_all_cases": "capture ELISA on coated 1.14.4; relative to silent alanine substitutions",
  "key": {"[1]": {"target": "T1, hPD-L1_ECD.His point mutant L27A (human, UniProt Q9NZQ7 19-238)", "T1 construct": "extracellular domain", "T1 sequence (Q9NZQ7 19-238 L27A)": "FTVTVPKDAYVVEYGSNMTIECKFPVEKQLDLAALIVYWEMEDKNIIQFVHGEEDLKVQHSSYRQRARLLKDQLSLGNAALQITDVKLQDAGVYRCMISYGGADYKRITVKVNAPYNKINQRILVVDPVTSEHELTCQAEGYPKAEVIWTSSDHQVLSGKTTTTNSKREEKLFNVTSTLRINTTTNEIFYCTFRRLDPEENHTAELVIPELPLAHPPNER", "method_in_brief": "(§1)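 Capture ELISA in which supernatant containing quantified PD-L1 alanine mutant was detected with HRP anti-His antibody. Absorbance was normalized to the average of control mutants. Epitope residues were called at binding fold change <0.55.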"}, "[2]": {"target": "T2, hPD-L1_ECD.His point mutant R125A (human, UniProt Q9NZQ7 19-238)", "T2 construct": "extracellular domain", "T2 sequence (Q9NZQ7 19-238 R125A)": "as the sequence (Q9NZQ7 19-238 L27A) above, with A9L, R107A counted along it", "method_in_brief": "as §1"}, "[3]": {"target": "T3, hPD-L1_ECD.His point mutant T37A (human, UniProt Q9NZQ7 19-238)", "T3 construct": "extracellular domain", "T3 sequence (Q9NZQ7 19-238 T37A)": "as the sequence (Q9NZQ7 19-238 L27A) above, with A9L, T19A counted along it", "method_in_brief": "as §1"}, "[4]": {"target": "T4, hPD-L1_ECD.His point mutant E45A (human, UniProt Q9NZQ7 19-238)", "T4 construct": "extracellular domain", "T4 sequence (Q9NZQ7 19-238 E45A)": "as the sequence (Q9NZQ7 19-238 L27A) above, with A9L, E27A counted along it", "method_in_brief": "as §1"}, "[5]": {"target": "T5, hPD-L1_ECD.His point mutant E188A (human, UniProt Q9NZQ7 19-238)", "T5 construct": "extracellular domain", "T5 sequence (Q9NZQ7 19-238 E188A)": "as the sequence (Q9NZQ7 19-238 L27A) above, with A9L, E170A counted along it", "method_in_brief": "as §1"}, "[6]": {"target": "T6, hPD-L1_ECD.His point mutant P161A (human, UniProt Q9NZQ7 19-238)", "T6 construct": "extracellular domain", "T6 sequence (Q9NZQ7 19-238 P161A)": "as the sequence (Q9NZQ7 19-238 L27A) above, with A9L, P143A counted along it", "method_in_brief": "as §1"}, "[7]": {"target": "T7, hPD-L1_ECD.His point mutant G159A (human, UniProt Q9NZQ7 19-238)", "T7 construct": "extracellular domain", "T7 sequence (Q9NZQ7 19-238 G159A)": "as the sequence (Q9NZQ7 19-238 L27A) above, with A9L, G141A counted along it", "method_in_brief": "as §1"}, "[8]": {"target": "T8, hPD-L1_ECD.His point mutant I206A (human, UniProt Q9NZQ7 19-238)", "T8 construct": "extracellular domain", "T8 sequence (Q9NZQ7 19-238 I206A)": "as the sequence (Q9NZQ7 19-238 L27A) above, with A9L, I188A counted along it", "method_in_brief": "as §1"}, "[9]": {"target": "T9, hPD-L1_ECD.His point mutant E58A (human, UniProt Q9NZQ7 19-238)", "T9 construct": "extracellular domain", "T9 sequence (Q9NZQ7 19-238 E58A)": "as the sequence (Q9NZQ7 19-238 L27A) above, with A9L, E40A counted along it", "method_in_brief": "as §1"}, "[10]": {"target": "T10, hPD-L1_ECD.His point mutant N183A (human, UniProt Q9NZQ7 19-238)", "T10 construct": "extracellular domain", "T10 sequence (Q9NZQ7 19-238 N183A)": "as the sequence (Q9NZQ7 19-238 L27A) above, with A9L, N165A counted along it", "method_in_brief": "as §1"}, "[11]": {"target": "T11, hPD-L1_ECD.His point mutant V225A (human, UniProt Q9NZQ7 19-238)", "T11 construct": "extracellular domain", "T11 sequence (Q9NZQ7 19-238 V225A)": "as the sequence (Q9NZQ7 19-238 L27A) above, with A9L, V207A counted along it", "method_in_brief": "as §1"}, "[12]": {"target": "T12, hPD-L1_ECD.His point mutant I199A (human, UniProt Q9NZQ7 19-238)", "T12 construct": "extracellular domain", "T12 sequence (Q9NZQ7 19-238 I199A)": "as the sequence (Q9NZQ7 19-238 L27A) above, with A9L, I181A counted along it", "method_in_brief": "as §1"}, "[13]": {"target": "T13, hPD-L1_ECD.His point mutant Y160A (human, UniProt Q9NZQ7 19-238)", "T13 construct": "extracellular domain", "T13 sequence (Q9NZQ7 19-238 Y160A)": "as the sequence (Q9NZQ7 19-238 L27A) above, with A9L, Y142A counted along it", "method_in_brief": "as §1"}, "[14]": {"target": "T14, hPD-L1_ECD.His point mutant N236A (human, UniProt Q9NZQ7 19-238)", "T14 construct": "extracellular domain", "T14 sequence (Q9NZQ7 19-238 N236A)": "as the sequence (Q9NZQ7 19-238 L27A) above, with A9L, N218A counted along it", "method_in_brief": "as §1"}, "[15]": {"target": "T15, hPD-L1_ECD.His point mutant N96A (human, UniProt Q9NZQ7 19-238)", "T15 construct": "extracellular domain", "T15 sequence (Q9NZQ7 19-238 N96A)": "as the sequence (Q9NZQ7 19-238 L27A) above, with A9L, N78A counted along it", "method_in_brief": "as §1"}, "[16]": {"target": "T16, hPD-L1_ECD.His point mutant V44A (human, UniProt Q9NZQ7 19-238)", "T16 construct": "extracellular domain", "T16 sequence (Q9NZQ7 19-238 V44A)": "as the sequence (Q9NZQ7 19-238 L27A) above, with A9L, V26A counted along it", "method_in_brief": "as §1"}, "[17]": {"target": "T17, hPD-L1_ECD.His point mutant R186A (human, UniProt Q9NZQ7 19-238)", "T17 construct": "extracellular domain", "T17 sequence (Q9NZQ7 19-238 R186A)": "as the sequence (Q9NZQ7 19-238 L27A) above, with A9L, R168A counted along it", "method_in_brief": "as §1"}, "[18]": {"target": "T18, hPD-L1_ECD.His point mutant S169A (human, UniProt Q9NZQ7 19-238)", "T18 construct": "extracellular domain", "T18 sequence (Q9NZQ7 19-238 S169A)": "as the sequence (Q9NZQ7 19-238 L27A) above, with A9L, S151A counted along it", "method_in_brief": "as §1"}, "[19]": {"target": "T19, hPD-L1_ECD.His point mutant T203A (human, UniProt Q9NZQ7 19-238)", "T19 construct": "extracellular domain", "T19 sequence (Q9NZQ7 19-238 T203A)": "as the sequence (Q9NZQ7 19-238 L27A) above, with A9L, T185A counted along it", "method_in_brief": "as §1"}, "[20]": {"target": "T20, hPD-L1_ECD.His point mutant D26A (human, UniProt Q9NZQ7 19-238)", "T20 construct": "extracellular domain", "T20 sequence (Q9NZQ7 19-238 D26A)": "as the sequence (Q9NZQ7 19-238 L27A) above, with D8A, A9L counted along it", "method_in_brief": "as §1"}, "[21]": {"target": "T21, hPD-L1_ECD.His point mutant E205A (human, UniProt Q9NZQ7 19-238)", "T21 construct": "extracellular domain", "T21 sequence (Q9NZQ7 19-238 E205A)": "as the sequence (Q9NZQ7 19-238 L27A) above, with A9L, E187A counted along it", "method_in_brief": "as §1"}, "[22]": {"target": "T22, hPD-L1_ECD.His point mutant S80A (human, UniProt Q9NZQ7 19-238)", "T22 construct": "extracellular domain", "T22 sequence (Q9NZQ7 19-238 S80A)": "as the sequence (Q9NZQ7 19-238 L27A) above, with A9L, S62A counted along it", "method_in_brief": "as §1"}, "[23]": {"target": "T23, hPD-L1_ECD.His point mutant E218A (human, UniProt Q9NZQ7 19-238)", "T23 construct": "extracellular domain", "T23 sequence (Q9NZQ7 19-238 E218A)": "as the sequence (Q9NZQ7 19-238 L27A) above, with A9L, E200A counted along it", "method_in_brief": "as §1"}, "[24]": {"target": "T24, hPD-L1_ECD.His point mutant Q47A (human, UniProt Q9NZQ7 19-238)", "T24 construct": "extracellular domain", "T24 sequence (Q9NZQ7 19-238 Q47A)": "as the sequence (Q9NZQ7 19-238 L27A) above, with A9L, Q29A counted along it", "method_in_brief": "as §1"}, "[25]": {"target": "T25, hPD-L1_ECD.His point mutant L48A (human, UniProt Q9NZQ7 19-238)", "T25 construct": "extracellular domain", "T25 sequence (Q9NZQ7 19-238 L48A)": "as the sequence (Q9NZQ7 19-238 L27A) above, with A9L, L30A counted along it", "method_in_brief": "as §1"}, "[26]": {"target": "T26, hPD-L1_ECD.His point mutant E71A (human, UniProt Q9NZQ7 19-238)", "T26 construct": "extracellular domain", "T26 sequence (Q9NZQ7 19-238 E71A)": "as the sequence (Q9NZQ7 19-238 L27A) above, with A9L, E53A counted along it", "method_in_brief": "as §1"}},
  "data": [
    {"binder": "1.14.4 (antibody, V domains shown, Fully human monoclonal antibody with a human constant region of IgG4 isotype) VH: EVQLLESGGGLVQPGGSLRLSCAASGFTFSSYAMSWVRQAPGKGLEWVSGISGSGGFTYYADSVKGRFTISRDNSKNTLYLQMNSLRAEDTAVYYCAKPPRGYNYGPFDYWGQGTLVTVSS VL: SYVLTQPPSVSVAPGQTARITCGGNNIGSKSVHWYQQKPGQAPVLVVYDDSDRPSGIPERFSGSNSGNTATLTISRVEAGDEADYYCQVWDSSSDHVVFGGGTKLTVL", "values": [
      {"measurement": "fold change", "setting": "[1]", "value": 0.949, "unit": "fold"},
      {"measurement": "fold change", "setting": "[2]", "value": 0.959, "unit": "fold"},
      {"measurement": "fold change", "setting": "[3]", "value": 0.569, "unit": "fold"},
      {"measurement": "fold change", "setting": "[4]", "value": 0.942, "unit": "fold"},
      {"measurement": "fold change", "setting": "[5]", "value": 0.833, "unit": "fold"},
      {"measurement": "fold change", "setting": "[6]", "value": 0.332, "unit": "fold"},
      {"measurement": "fold change", "setting": "[7]", "value": 0.448, "unit": "fold"},
      {"measurement": "fold change", "setting": "[8]", "value": 0.876, "unit": "fold"},
      {"measurement": "fold change", "setting": "[9]", "value": 0.399, "unit": "fold"},
      {"measurement": "fold change", "setting": "[10]", "value": 0.944, "unit": "fold"},
      {"measurement": "fold change", "setting": "[11]", "value": 0.749, "unit": "fold"},
      {"measurement": "fold change", "setting": "[12]", "value": 0.848, "unit": "fold"},
      {"measurement": "fold change", "setting": "[13]", "value": 0.505, "unit": "fold"},
      {"measurement": "fold change", "setting": "[14]", "value": 0.848, "unit": "fold"},
      {"measurement": "fold change", "setting": "[15]", "value": 0.924, "unit": "fold"},
      {"measurement": "fold change", "setting": "[16]", "value": 0.837, "unit": "fold"},
      {"measurement": "fold change", "setting": "[17]", "value": 0.805, "unit": "fold"},
      {"measurement": "fold change", "setting": "[18]", "value": 0.939, "unit": "fold"},
      {"measurement": "fold change", "setting": "[19]", "value": 0.87, "unit": "fold"},
      {"measurement": "fold change", "setting": "[20]", "value": 0.963, "unit": "fold"},
      {"measurement": "fold change", "setting": "[21]", "value": 0.801, "unit": "fold"},
      {"measurement": "fold change", "setting": "[22]", "value": 0.974, "unit": "fold"},
      {"measurement": "fold change", "setting": "[23]", "value": 0.732, "unit": "fold"},
      {"measurement": "fold change", "setting": "[24]", "value": 1.05, "unit": "fold"},
      {"measurement": "fold change", "setting": "[25]", "value": 0.77, "unit": "fold"},
      {"measurement": "fold change", "setting": "[26]", "value": 0.772, "unit": "fold"}
    ]}
  ]
}
